According to patent US20160151410A1, “CLEARANCE OF BIOACTIVE LIPIDS FROM MEMBRANE STRUCTURES BY CYCLODEXTRINS” (The Trustees of Columbia University in the City of New York, priority 2013, published 2016):

Experiments:
Format in all cases: biochemical
[1] = system: classical pathway of complement system; assay: Complement activation (C3 fixation) by LIPC- or CEase-digested immobilized LDL with human serum; conditions: 0-50 μg/ml LIPC; 0-2 hours
Method: 96-well MaxiSorp plates were coated with fresh human LDL (A, D, E), VLDL (B), or NaOH-hydrolyzed LDL (C). After blocking with BSA, the plates, except (C), were digested with LIPC. To test complement activation, the plates were incubated with diluted native human serum (N), C1q-depleted human serum (Cd), factor B-depleted human serum (Bd), or human serum containing Mg-EGTA (ME). C3 fixation on the plate was detected with a monoclonal anti-C3d antibody followed by HRP-conjugated secondary antibody. Specific conditions for LIPC digestion and HRP-catalyzed color development of each experiment were outlined as following: LIPC was used at 10 μg/ml for (A, B, E), 0-50 μg/ml for (D), and no LIPC for (C). LIPC degradation was 1 hour for (D), 2 hours for (A, B), and 0-2 hours for (E). Color development was 15 minutes for (A, B, C, E) and 10 minutes for (D). For NaOH hydrolysis of LDL, 1.35 mg/ml of LDL was incubated in 0.15M NaOH solution at 25° C. for up to 60 minutes. Aliquots were taken out and neutralized with 0.15M HCl at 1, 10, 20, 60 minutes.
LIPC and CEase, both having 8 μUnits of phospholipase A1 activity but having 3 μUnits and 8125 μUnits of triglyceride hydrolase activity respectively, were used for 2 hours digestion of immobilized LDL. Complement activation with diluted native human serum is then determined as in FIG. 1. The HRP-catalyzed color development was 15 minutes.
Human LDL coating and 1 hour (C) or 2 hours (A, B) LIPC digestion was performed as described in FIG. 1. (A) For complement activation, 0-50 μM of phosphocholine was added into diluted native human serum. […]
After thorough washing of the plate, C3 fixation and final membrane attack complex formation on the plate were determined with anti-human C3d antibody and anti-human C5b-9 antibody, in combination with HRP-conjugated secondary antibody, respectively. […] The final peroxidase activity was monitored at 450 nm with 3,3′,5,5′-tetramethyl-benzidine and hydrogen peroxide as substrates after 10 or 15 minutes reaction at room temperature.

[2] = Phospholipase A activity assay; conditions: amount of enzyme used for LDL digestion
Method: (§1) Triglyceride hydrolase activity of CEase and LIPC was determined with DMPTB as substrate according to Choi et al. (Choi et al., 2003) Phospholipase A activity of CEase and LIPC was assayed similarly as triglyceride hydrolase activity but with 1.5 mM of 1,2-bis(heptanoylthio)glycerophosphocholine as substrate and assay buffer containing 10 mM of CaCl2 instead of 1 mM of EDTA.

[3] = Triglyceride hydrolase activity assay; conditions: amount of enzyme used for LDL digestion
Method: as §1

- PLA1 activity [2]: 8 μUnits
B1: LIPC: recombinant human LIPC (hepatic lipase) (protein, UniProt P11150 23-499, looked up)
Hepatic triacylglycerol lipase: LGQSLKPEPFGRRAQAVETNKTLHEMKTRFLLFGETNQGCQIRINHPDTLQECGFNSSLPLVMIIHGWSVDGVLENWIWQMVAALKSQPAQPVNVGLVDWITLAHDHYTIAVRNTRLVGKEVAALLRWLEESVQLSRSHVHLIGYSLGAHVSGFAGSSIGGTHKIGRITGLDAAGPLFEGSAPSNRLSPDDANFVDAIHTFTREHMGLSVGIKQPIGHYDFYPNGGSFQPGCHFLELYRHIAQHGFNAITQTIKCSHERSVHLFIDSLLHAGTQSMAYPCGDMNSFSQGLCLSCKKGRCNTLGYHVRQEPRSKSKRLFLVTRAQSPFKVYHYQFKIQFINQTETPIQTTFTMSLLGTKEKMQKIPITLGKGIASNKTYSFLITLDVDIGELIMIKFKWENSAVWANVWDTVQTIIPWSTGPRHSGLVLKTIRVKAGETQQRMTFCSENTDDLLLRPTQEKIFVKCEIKSKTSKRKIR
- complement activation, dependence on LIPC degradation [1]: both dose and time-dependent
- TGhydrolase activity [3]: 3 μUnits
